Experimental data from patent US20180318437A1 (Bayer, published 2018).

T1: IL-3Ralpha, CD123, on CD123-positive human cancer cell lines (human, UniProt P26951 20-378)
T1 construct: Target of the flow cytometry and internalisation assays; The cell line of each value is named under assay
T1 sequence: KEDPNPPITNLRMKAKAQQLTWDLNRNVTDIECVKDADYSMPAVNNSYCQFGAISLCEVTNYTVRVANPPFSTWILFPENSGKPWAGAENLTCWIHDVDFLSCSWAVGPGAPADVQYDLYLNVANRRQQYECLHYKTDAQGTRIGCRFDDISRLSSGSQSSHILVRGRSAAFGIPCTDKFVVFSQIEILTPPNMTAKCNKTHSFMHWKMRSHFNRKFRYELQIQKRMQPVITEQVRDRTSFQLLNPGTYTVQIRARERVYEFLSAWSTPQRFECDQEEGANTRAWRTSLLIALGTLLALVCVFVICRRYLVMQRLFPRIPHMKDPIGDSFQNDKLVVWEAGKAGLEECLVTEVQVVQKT

T2: TPP-5521, recombinant antigen IL3Ra aa20-305 (IL3R3alpha/CD123) (murine (as printed under 'Origin' in …, UniProt P26951 20-305 (human entry)))
T2 construct: Bought protein; also called IL3Ra protein; extracellular domain of IL3Ra
T2 sequence: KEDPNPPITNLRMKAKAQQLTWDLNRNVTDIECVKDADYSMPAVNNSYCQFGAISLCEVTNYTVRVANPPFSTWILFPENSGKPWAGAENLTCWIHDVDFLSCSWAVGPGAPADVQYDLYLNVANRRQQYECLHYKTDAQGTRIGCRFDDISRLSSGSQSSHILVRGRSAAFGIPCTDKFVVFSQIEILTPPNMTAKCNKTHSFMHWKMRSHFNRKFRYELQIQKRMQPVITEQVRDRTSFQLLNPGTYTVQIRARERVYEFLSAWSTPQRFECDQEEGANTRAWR


Columns and labels:
[1] = target: T1, IL-3Ralpha, CD123, on CD123-positive …; test: flow cytometry on MV-4-11 cells, titration from 10 ug/ml in 1:5 steps, anti-kappa-FITC secondary antibody; MV-4-11 cells
[2] = target: T2, TPP-5521, recombinant antigen IL3Ra …; test: SPR, Biacore T200, antibody captured by anti-human Fc, IL3Ra (TPP-5521) as analyte 1.56-200 nM, 25 C, 1:1 Langmuir fit

| EC50 [1] | koff [2] | kon [2] | Binder |
| --- | --- | --- | --- |
| 2.6 nM | – | – | TPP-5969 (antibody, human IgG1, kappa, V domains shown, Humanized variant of 7G3 made by CDR grafting, human IgG1 kappa; Tested as unconjugated antibody; also called anti-CD123 AK1A; humanized variant of 7G3) VH: QVQLVQSGAEVKKPGSSVKVSCKASGGTFSDYYMKWVRQAPGQGLEWMGDIIPSNGATFYAQKFQGRVTITADESTSTAYMELSSLRSEDTAVYYCARSHLLRASWFAYWGQGTLVTVSS VL: DIVMTQSPDSLAVSLGERATINCESSQSLLNSGNQKNYLTWYQQKPGQPPKLLIYWASTRESGVPDRFSGSGSGTDFTLTISSLQAEDVAVYYCQNDYSYPYTFGQGTKLEIKR |
| – | 0.00019 s⁻¹ | 300000 M⁻¹ s⁻¹ | TPP-6013 (antibody, human IgG1, kappa, V domains shown, Tested as unconjugated antibody; also called anti-CD123 AK1C; chimeric variant of 12F1) VH: QVQLQESGPGLVKPSQSLSLTCSVTDYSITSGYYWNWIRQFPGNKLEWMGYISYDGSNNYNPSLKNRISITRDTSKNQFFLKLSSVTTEDTATYYCSRGEGFYFDSWGQGTTLTVSS VL: DIMMSQSPSSLAVSVGEKFTMTCKSSQSLFFGSTQKNYLAWYQQKPGQSPKLLIYWASTRESGVPDRFTGSGSGTDFTLAISSVMPEDLAVYYCQQYYNYPWTFGGGTKLEIKR |
